Reference: article PMC9482650, “Quantitative fragmentomics allow affinity mapping of interactomes” (Nature Communications, 2022)

Tests used:
Assay in all cases: holdup assay
Set-up in all cases: key: below the threshold = too weak to quantify, mostly under pKd 3.1 to 4
Settings in all cases: plain residues with an end cap or a label only (N-terminal biotin on a linker: ttds)
[1] = target: T1, FRMPD1, Q5SYB0
T1 sequence (Q5SYB0 52-145, limits assumed, looked up): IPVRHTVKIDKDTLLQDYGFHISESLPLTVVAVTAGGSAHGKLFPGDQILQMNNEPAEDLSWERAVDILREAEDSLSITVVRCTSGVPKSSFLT

[2] = target: DLG2_3, Q15700
[3] = target: GIPC2, Q8TF65
[4] = target: Inadl_5, Q8NI35
[5] = target: SCRIB_1, Q14160
[6] = target: GRASP, Q7Z6J2
[7] = target: MAGI2_2, Q86UL8
[8] = target: IL16_3, Q14005
[9] = target: PDLIM1, O00151
[10] = target: T2, MPDZ_10, O75970
T2 sequence (O75970 1624-1722, limits assumed, looked up): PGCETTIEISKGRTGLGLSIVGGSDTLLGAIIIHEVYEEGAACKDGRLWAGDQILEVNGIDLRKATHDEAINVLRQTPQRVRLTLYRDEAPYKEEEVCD

[11] = target: T3, NHERF3_1, Q5T2W1
T3 sequence (Q5T2W1 4-100, limits assumed, looked up): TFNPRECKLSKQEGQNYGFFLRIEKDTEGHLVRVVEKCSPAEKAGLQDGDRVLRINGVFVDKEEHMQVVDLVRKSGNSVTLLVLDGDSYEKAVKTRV

[12] = target: GRID2IP_1, A4D2P6
[13] = target: MAGI2_3, Q86UL8
[14] = target: CASK, O14936
[15] = target: T4, LIN7A, O14910
T4 sequence (O14910 103-200, limits assumed, looked up): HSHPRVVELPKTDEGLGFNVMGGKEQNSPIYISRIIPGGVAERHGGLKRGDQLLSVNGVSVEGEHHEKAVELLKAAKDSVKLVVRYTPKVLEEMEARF

[16] = target: T5, RADIL, Q96JH8
T5 sequence (Q96JH8 971-1071, limits assumed, looked up): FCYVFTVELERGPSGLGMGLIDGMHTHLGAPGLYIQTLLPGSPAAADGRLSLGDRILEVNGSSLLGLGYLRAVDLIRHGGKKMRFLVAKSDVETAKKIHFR

[17] = target: T6, DFNB31_2, Q9P202
T6 sequence (Q9P202 274-371, limits assumed, looked up): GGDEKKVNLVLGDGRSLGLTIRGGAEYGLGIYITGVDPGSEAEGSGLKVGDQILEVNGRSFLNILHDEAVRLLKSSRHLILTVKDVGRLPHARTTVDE

[18] = target: GRIP2_3, Q9C0E4
[19] = target: T7, MPDZ_5, O75970
T7 sequence (O75970 695-796, limits assumed, looked up): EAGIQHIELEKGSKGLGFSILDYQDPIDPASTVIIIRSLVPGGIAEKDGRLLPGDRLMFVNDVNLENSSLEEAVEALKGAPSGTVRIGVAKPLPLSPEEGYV

[20] = target: TJP2_1, Q9UDY2
[21] = target: T8, DLG3_1, Q92796
T8 sequence (Q92796 125-227, limits assumed, looked up): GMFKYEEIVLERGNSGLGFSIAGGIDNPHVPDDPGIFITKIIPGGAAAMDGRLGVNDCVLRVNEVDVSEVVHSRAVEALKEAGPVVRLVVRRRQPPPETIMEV

[22] = target: FRMPD2_3, Q68DX3
[23] = target: MAGI1_1, Q96QZ7
[24] = target: T9, PARD3B_1, Q8TEW8
T9 sequence (Q8TEW8 196-299, limits assumed, looked up): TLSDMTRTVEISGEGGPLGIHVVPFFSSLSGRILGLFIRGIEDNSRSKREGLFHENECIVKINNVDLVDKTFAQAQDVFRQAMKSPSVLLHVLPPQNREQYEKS

[25] = target: Inadl_1, Q8NI35
[26] = target: Inadl_10, Q8NI35
[27] = target: SCRIB_2, Q14160
[28] = target: T10, DFNB31_1, Q9P202
T10 sequence (Q9P202 135-233, limits assumed, looked up): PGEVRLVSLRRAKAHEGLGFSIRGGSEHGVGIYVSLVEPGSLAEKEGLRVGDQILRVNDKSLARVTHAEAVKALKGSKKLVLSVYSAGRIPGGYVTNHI

SCRIB_2, Q14160, sequence (Q14160 857-960): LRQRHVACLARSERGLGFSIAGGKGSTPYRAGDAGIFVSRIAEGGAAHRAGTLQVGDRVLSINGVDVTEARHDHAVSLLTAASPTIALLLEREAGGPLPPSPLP
SCRIB_1, Q14160, sequence (Q14160 718-814): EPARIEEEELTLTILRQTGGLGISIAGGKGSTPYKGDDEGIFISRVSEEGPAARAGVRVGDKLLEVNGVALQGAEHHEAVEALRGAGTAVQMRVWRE
MAGI2_3, Q86UL8, sequence (Q86UL8 600-682): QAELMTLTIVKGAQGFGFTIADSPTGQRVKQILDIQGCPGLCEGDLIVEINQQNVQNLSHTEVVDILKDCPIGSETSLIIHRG
GRASP, Q7Z6J2, sequence (Q7Z6J2 96-193): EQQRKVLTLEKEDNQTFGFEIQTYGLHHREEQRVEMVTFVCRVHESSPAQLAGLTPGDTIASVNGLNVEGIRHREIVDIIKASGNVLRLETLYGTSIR
MAGI1_1, Q96QZ7, sequence (Q96QZ7 1-106): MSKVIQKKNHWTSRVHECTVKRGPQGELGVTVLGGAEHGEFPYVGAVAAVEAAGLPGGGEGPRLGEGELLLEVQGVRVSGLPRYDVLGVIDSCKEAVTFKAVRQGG
CASK, O14936, sequence (O14936 487-570): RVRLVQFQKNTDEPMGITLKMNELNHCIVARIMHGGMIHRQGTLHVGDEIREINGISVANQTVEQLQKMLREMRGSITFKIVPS
MAGI2_2, Q86UL8, sequence (Q86UL8 410-522): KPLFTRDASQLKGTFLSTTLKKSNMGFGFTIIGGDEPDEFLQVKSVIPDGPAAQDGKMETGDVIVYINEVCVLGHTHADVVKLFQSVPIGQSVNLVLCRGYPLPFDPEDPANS
FRMPD2_3, Q68DX3, sequence (Q68DX3 1073-1166): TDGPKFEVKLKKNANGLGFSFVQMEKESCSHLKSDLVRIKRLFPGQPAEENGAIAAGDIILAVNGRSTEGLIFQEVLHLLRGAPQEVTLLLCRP
GRIP2_3, Q9C0E4, sequence (Q9C0E4 238-339): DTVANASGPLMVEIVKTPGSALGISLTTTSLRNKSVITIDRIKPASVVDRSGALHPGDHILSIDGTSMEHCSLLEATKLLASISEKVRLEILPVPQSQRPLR
Inadl_1, Q8NI35, sequence (Q8NI35 113-229): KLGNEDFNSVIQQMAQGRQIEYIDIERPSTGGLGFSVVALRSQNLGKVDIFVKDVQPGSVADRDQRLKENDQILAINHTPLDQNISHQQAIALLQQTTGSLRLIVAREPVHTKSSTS
Inadl_10, Q8NI35, sequence (Q8NI35 1673-1763): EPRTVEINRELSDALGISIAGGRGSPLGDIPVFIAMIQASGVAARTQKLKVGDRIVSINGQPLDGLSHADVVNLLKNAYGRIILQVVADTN
PDLIM1, O00151, sequence (O00151 1-87): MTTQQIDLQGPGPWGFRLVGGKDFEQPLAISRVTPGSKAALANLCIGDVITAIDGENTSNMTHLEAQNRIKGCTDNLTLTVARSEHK
Inadl_5, Q8NI35, sequence (Q8NI35 673-780): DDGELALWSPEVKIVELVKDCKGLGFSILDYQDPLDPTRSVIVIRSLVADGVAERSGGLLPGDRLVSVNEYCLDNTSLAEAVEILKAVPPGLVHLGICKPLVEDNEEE
TJP2_1, Q9UDY2, sequence (Q9UDY2 24-128): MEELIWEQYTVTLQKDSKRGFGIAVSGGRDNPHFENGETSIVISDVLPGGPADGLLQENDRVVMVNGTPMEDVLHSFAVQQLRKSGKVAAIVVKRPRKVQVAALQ
GRID2IP_1, A4D2P6, sequence (A4D2P6 1-87): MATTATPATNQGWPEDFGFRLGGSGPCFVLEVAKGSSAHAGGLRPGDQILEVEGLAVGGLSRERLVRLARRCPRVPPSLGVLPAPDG
IL16_3, Q14005, sequence (Q14005 1107-1207): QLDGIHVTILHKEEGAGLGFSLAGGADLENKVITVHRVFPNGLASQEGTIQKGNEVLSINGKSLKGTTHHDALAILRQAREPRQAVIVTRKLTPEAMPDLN
GIPC2, Q8TF65, sequence (Q8TF65 112-203): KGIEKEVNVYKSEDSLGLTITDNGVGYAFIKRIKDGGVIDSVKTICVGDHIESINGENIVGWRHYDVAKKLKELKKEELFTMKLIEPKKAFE

| Binder | pKd [1] | pKd [2] | pKd [3] | pKd [4] | pKd [5] | pKd [6] | pKd [7] | pKd [8] | pKd [9] | pKd [10] | pKd [11] | pKd [12] | pKd [13] | pKd [14] | pKd [15] | pKd [16] | pKd [17] | pKd [18] | pKd [19] | pKd [20] | other results |
| --- | --- | --- | --- | --- | --- | --- | --- | --- | --- | --- | --- | --- | --- | --- | --- | --- | --- | --- | --- | --- | --- |
| SRRPRTETQV [HPV31-E6, P17386] | below the threshold | 5.1 | below the threshold | below the threshold | 4.6 | below the threshold | 6.38 | below the threshold | below the threshold | below the threshold | 4.32 | below the threshold | 4.1 | below the threshold | 3.51 | below the threshold | below the threshold | below the threshold | below the threshold | 3.66 | pKd [21]: 4.44; pKd [22]: below the threshold; pKd [23]: below the threshold; pKd [24]: below the threshold; pKd [25]: below the threshold; pKd [26]: below the threshold; pKd [27]: 4.38; pKd [28]: 3.55 |
| QFQYAKESYI [TAGAP, Q8N103] | below the threshold | 3.95 | 3.78 | below the threshold | 3.72 | below the threshold | 3.5 | below the threshold | below the threshold | below the threshold | 5.08 | below the threshold | below the threshold | below the threshold | below the threshold | 3.69 | 4.74 | below the threshold | below the threshold | 4.43 | pKd [21]: below the threshold; pKd [22]: below the threshold; pKd [23]: below the threshold; pKd [24]: 3.98; pKd [25]: below the threshold; pKd [26]: below the threshold; pKd [27]: 3.56; pKd [28]: 4.24 |
